Test results taken from US20140322196A1 (priority 2011, published 2014).
Read-outs that look alike come from different tables or passages of the source.

B1: bLf: Lactoferrin from bovine milk, purchased from Morinaga Milk Industries, deprived of endotoxin (protein, UniProt P24627 20-708, looked up)
Lactotransferrin: APRKNVRWCTISQPEWFKCRRWQWRMKKLGAPSITCVRRAFALECIRAIAEKKADAVTLDGGMVFEAGRDPYKLRPVAAEIYGTKESPQTHYYAVAVVKKGSNFQLDQLQGRKSCHTGLGRSAGWIIPMGILRPYLSWTESLEPLQGAVAKFFSASCVPCIDRQAYPNLCQLCKGEGENQCACSSREPYFGYSGAFKCLQDGAGDVAFVKETTVFENLPEKADRDQYELLCLNNSRAPVDAFKECHLAQVPSHAVVARSVDGKEDLIWKLLSKAQEKFGKNKSRSFQLFGSPPGQRDLLFKDSALGFLRIPSKVDSALYLGSRYLTTLKNLRETAEEVKARYTRVVWCAVGPEEQKKCQQWSQQSGQNVTCATASTTDDCIVLVLKGEADALNLDGGYIYTAGKCGLVPVLAENRKSSKHSSLDCVLRPTEGYLAVAVVKKANEGLTWNSLKDKKSCHTAVDRTAGWNIPMGLIVNQTGSCAFDEFFSQSCAPGADPKSRLCALCAGDDQGLDKCVPNSKEKYYGYTGAFRCLAEDVGDVAFVKNDTVWENTNGESTADWAKNLNREDFRLLCLDGTRKPVTEAQSCHLAVAPNHAVVSRSDRAAHVKQVLLHQQALFGKNGKNCPDKFCLFKSETKNLLFNDNTECLAKLGGRPTYEEYLGTEYVTAIANLKKCSTSPLLEACAFLTR
B2: C-lobe: bovine lactoferrin C-lobe as named in the text, without saying which of the two fragments of Table 2 (protein)
chain: YTRVVWCAVGPEEQKKCQQWSQQSGQNVTCATASTTDDCIVLVLKGEADALNLDGGYIYTAGKCGLVPVLAENRKSSKHSSLDCVLRPTEGYLAVAVVKKANEGLTWNSLKDKKSCHTAVDRTAGWNIPMGLIVNQTGSCAFDEFFSQSCAPGADPKSRLCALCAGDDQGLDKCVPNSKEKYYGYTGAFRCLAEDVGDVAFVKNDTVWENTNGESTADWAKNLNREDFRLLCLDGTRKPVTEAQSCHLAVAPNHAVVSRSDRAAHVKQVLLHQQALFGKNGKNCPDKFCLFKSETKNLLFNDNTECLAKLGGRPTYEEYLGTEYVTAIANLKKCSTSPLLEACAFLTR
modifications: bovine lactoferrin C-lobe peptide

How the values were obtained:
[1] = test system: SW X-179A 1089/09 inactivated subunits, vaccine H1N1; format: cell-based, Influenza A virus
[2] = test system: Influenza virus A/RomaISS/2/08; format: binding
[3] = test system: A/Parma/5/06 (Wisconsin-like) H3N2; format: cell-based, Influenza A virus
[4] = test system: Avian 29/05/06 inactivated vaccine H5N1; format: cell-based, Influenza A virus; conditions: Avian 29/05/06 H5N1 inactivated vaccine
[5] = test system: A/Wisconsin (67/05) inactivated subunits, vaccine H3N2; format: cell-based, Influenza A virus
[6] = test system: A/Solomon (3/06) inactivated subunits, vaccine H1N1; format: cell-based, Influenza A virus
[7] = test system: A/Turkey/Italy/2676/99 H7N1; format: cell-based, Influenza A virus
[8] = test system: A/PR/8/34 H1N1; format: cell-based, Influenza A virus
[9] = test system: Influenza A/H1N1 (A/Roma-ISS/2/08 and A/Parma/24/09) and A/H3N2 (A/Parma/05/06); format: cell-based, Influenza A virus
[10] = test system: A/Roma-ISS/2/08 (Brisbane-like) (oseltamivir-sensitive) H1N1; format: cell-based, Influenza A virus
[11] = test system: all tested virus strains (Influenza A H1N1, H3N2, H5N1, H7N1)
[12] = test system: HA and NA surface antigens of Solomon (H1N1) and Wisconsin (H3N2) subunit vaccines; format: binding, Influenza A virus

Row | Molecule | HI titre [1] [fM] | virus binding to bLf ([2]; pH 4) | virus binding to bLf ([2]; pH 5) | virus binding to bLf ([2]; pH 6) | HI titre [3] [nM] | HI titre [4] [pM] | HI titre [5] [pM] | HI titre [6] [pM] | HI titre [7] [fM] | HI titre [8] [nM] | effect on virus replication / infection (in words) [9] | HI titre [10] [nM] | substance-induced agglutination or erythrocyte lysis ([11]; turkey red blood cells, in the hemagglutination assays) | bLf binding to viral envelope proteins (in words) [12] | inhibition of viral hemagglutination (in words) [11]
1 | B1 | 46.5 | 47.2+/−1.4% | 52.9+/−9.7% | 34.1+/−4.1% | 3 | 2.9 | 0.3 | 5 | 93.1 | 3 | markedly inhibited | 6 | Neither bLf-induced agglutination nor visual evidence of erythrocyte lysis was observed | binds to a viral protein of apparent molecular mass of 28 kDa | 
2 | B2 |  |  |  |  |  |  |  |  |  |  | highly inhibited |  |  |  | marked inhibition of viral hemagglutination
